T1: Ang2 (UniProt O15123 19-496)
T1 chain: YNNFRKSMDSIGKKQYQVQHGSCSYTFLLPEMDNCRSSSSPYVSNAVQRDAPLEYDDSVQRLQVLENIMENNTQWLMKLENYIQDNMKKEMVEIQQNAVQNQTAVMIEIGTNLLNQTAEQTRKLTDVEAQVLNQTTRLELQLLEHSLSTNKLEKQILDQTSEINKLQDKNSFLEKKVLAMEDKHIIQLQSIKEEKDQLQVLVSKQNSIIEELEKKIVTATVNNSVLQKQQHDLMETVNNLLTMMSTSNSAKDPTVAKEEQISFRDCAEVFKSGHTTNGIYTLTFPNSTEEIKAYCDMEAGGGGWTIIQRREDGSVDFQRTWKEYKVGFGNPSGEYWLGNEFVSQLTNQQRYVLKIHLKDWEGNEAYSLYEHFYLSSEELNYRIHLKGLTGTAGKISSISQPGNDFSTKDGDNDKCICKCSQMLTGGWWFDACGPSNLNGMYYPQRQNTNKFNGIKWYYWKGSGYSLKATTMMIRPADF


Target: T1, Ang2
Experiment: direct binding ELISA; MBP fusion

Row | Binder | EC50 [nM]
1 | AQTNFMPMDNDEGLLYEEFI [L1-7D MVD (2A1)] | > 100
2 | AQTNFMPMDNDEGLLYEQFI [L1-7D MDD (ZC12)] | 0.153
3 | AQTNFMPMDDDELLLYEQFIL [L1-7D MKD (5A8)] | > 100
4 | KSLSLSPGGNGTTNFMPMDQDEALLYEEFI [L1-7D MSD (7B2)] | 1.38
5 | AQTNFMPMDQDELLLYEQFI [L1-7D MND (4H4)] | 0.411
6 | AQTNFMPMDQDEALLYEEFIC [L1-7D MAD (6A3)] | > 100
7 | AQTNFMPMDNDEALLYEEFI [L1-7D MHD (3C3)] | 17
8 | AQTNFMPMDNDEALLYEQFI [L1-7D MQD (1A12)] | > 100
